In patent publication US11034759B2, “Humanized M-CSF specific monoclonal antibodies, kits, and uses thereof” (NOVARTIS VACCINES AND DIAGNOSTICS, INC., priority 2004, dated 2021):

T1: MCSF (Homo sapiens, UniProt P09603)
T1 sequence (P09603 33-255 limits assumed): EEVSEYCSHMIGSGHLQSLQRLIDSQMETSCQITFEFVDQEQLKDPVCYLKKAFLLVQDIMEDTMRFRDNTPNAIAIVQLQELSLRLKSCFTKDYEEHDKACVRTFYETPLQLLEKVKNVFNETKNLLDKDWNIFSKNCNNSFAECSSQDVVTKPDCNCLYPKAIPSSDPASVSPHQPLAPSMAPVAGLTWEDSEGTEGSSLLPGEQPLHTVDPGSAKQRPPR


What was measured:
MCSF [1] = molecular target: T1, MCSF; assay: Biacore analysis of Human Engineered RX1 antibodies, M-CSF immobilized (Example 13); format: binding
Protocol: To determine the relative differences in the binding affinity of intact antibodies by Biacore analysis, M-CSF was immobilized onto CMS biosensor chip via amine coupling. 0.05 μg/ml M-CSF in 10 mM Na-Acetate pH 4.0 was injected at 1 μl/min for 5 minutes to achieve RL=6-12 RU. Test antibody or Fab fragments were flowed over the modified biosensor surface at varying concentrations ranging from 100 nM to 1.5 nM in 2-fold dilutions. Test antibodies were diluted in 0.01 M HEPES pH 7.4, 0.15 M NaCL, 3 mM EDTA, 0.005% Surfactant P20 (HBS-EP) and all experiments were done at 25° C. Each concentration point and buffer blanks were run in triplicate, and data was collected over 3 minutes of association and 8 minutes of dissociation. Kinetic and affinity constants were determined using Biaevaluation software with a 1:1 interaction model/global fit.

MCSF [2] = molecular target: T1, MCSF; assay: Size of antigen-antibody complex by size exclusion chromatography or light scattering; details: M-CSF and antibody at equal molar ratios
MCSF [3] = molecular target: T1, MCSF; assay: M-NFS-60 proliferation assay, neutralizing activity (Example 1); format: cell-based; details: 10 ng/ml M-CSF, 72 hours
Protocol: Proliferation of M-NFS-60 requires active M-CSF in a dose-dependent fashion. In the assay, M-NFS-60 cells were washed and plated in RPMI 1640 medium with 10% FBS and 3000 U/ml of M-CSF and 1% Pen/Strep. Recombinant human M-CSF (at 10 ng/ml final concentration), human or murine-specific, was incubated with various concentrations of antibodies for 1 hour at 37° C. in 5% CO2 in an incubator. Following the incubation, the mixture was added to the M-NFS-60 culture in 96 well microtiter plates. Cells were incubated at 37° C. under 5% CO2 for 72 hours before cell numbers were quantified by CellTiter Glo assay (Promega). The aforementioned assay was repeated for antibodies MC3 and MC1.

| Molecule | ka (MCSF [1]; Table 11, 25° C.) | kd (MCSF [1]; Table 11, 25° C.) | Size of antigen-antibody complex (MCSF [2]) | Type of antigen-antibody complex formed with MCSF (MCSF [2]) | kd (sec-1) (MCSF [1]; Table 10, 25° C.) | kd (sec-1) (MCSF [1]; Table 11, 25° C.) | Neutralization of M-CSF activity (M-NFS-60 proliferation) (MCSF [3]) |
| --- | --- | --- | --- | --- | --- | --- | --- |
| heRX1-9.G2: Human Engineered RX1: light chain Low + Mod Risk (Germline), heavy chain Low Risk (Kabat), Gamma 2 (antibody, left off: a dimerising Fc or GST) heavy: DVQLQESGPGLVKPSQTLSLTCTVTDYSITSDYAWNWIRQFPGKKLEWMGYISYSGSTSYNPSLKSRITISRDTSKNQFSLQLNSVTAADTATYYCASFDYAHAMDYWGQGTTVTVSS light: DIVLTQSPAFLSVTPGEKVTFTCQASQSIGTSIHWYQQKTDQAPKLLIKYASESISGIPSRFSGSGSGTDFTLTISSVEAEDAADYYCQQINSWPTTFGGGTKLEIKRT | 200000 M⁻¹ s⁻¹ | 0.00144 s⁻¹ | about 400 kDa | 2:1 or 2:2 complexes | – | – | – |
| heRX1-8.G2: Human Engineered RX1: light chain Low + Mod Risk (Kabat) − RAT 54, 55, 56 to SIS, heavy chain Low + Mod Risk (Kabat), Gamma 2 (antibody, V domains shown) VH: QVQLQESGPGLVKPSQTLSLTCTVSDYSITSDYAWNWIRQFPGKGLEWMGYISYSGSTSYNPSLKSRITISRDTSKNQFSLQLNSVTAADTAVYYCASFDYAHAMDYWGQGTTVTVSS VL: EIVLTQSPGTLSVSPGERVTFSCRASQSIGTSIHWYQQKTGQAPRLLIKYASESISGIPDRFSGSGSGTDFTLTISRVESEDFADYYCQQINSWPTTFGQGTKLEIK | 152000 M⁻¹ s⁻¹ | 0.00148 s⁻¹ | – | – | – | – | – |
| heRX1-2.G2: Human Engineered RX1: light chain Low Risk (Kabat), heavy chain Low + Mod Risk (Kabat), Gamma 2 (antibody, left off: a dimerising Fc or GST) heavy: QVQLQESGPGLVKPSQTLSLTCTVSDYSITSDYAWNWIRQFPGKGLEWMGYISYSGSTSYNPSLKSRITISRDTSKNQFSLQLNSVTAADTAVYYCASFDYAHAMDYWGQGTTVTVSS light: EIVLTQSPGTLSVSPGERVTFSCRASQSIGTSIHWYQQKTGQSPRLLIKYASERISGIPDRFSGSGSGTDFTLTISRVESEDFADYYCQQINSWPTTFGQGTKLEIKRT | 218000 M⁻¹ s⁻¹ | 0.00165 s⁻¹ | – | – | – | – | – |
| heRX1-4.G2: Human Engineered RX1: light chain Low + Mod Risk (Kabat), heavy chain Low + Mod Risk (Kabat), Gamma 2 (antibody, left off: a dimerising Fc or GST) heavy: QVQLQESGPGLVKPSQTLSLTCTVSDYSITSDYAWNWIRQFPGKGLEWMGYISYSGSTSYNPSLKSRITISRDTSKNQFSLQLNSVTAADTAVYYCASFDYAHAMDYWGQGTTVTVSS light: EIVLTQSPGTLSVSPGERVTFSCRASQSIGTSIHWYQQKTGQAPRLLIKYASERATGIPDRFSGSGSGTDFTLTISRVESEDFADYYCQQINSWPTTFGQGTKLEIKRT | 238000 M⁻¹ s⁻¹ | 0.00108 s⁻¹ | – | – | – | – | – |
| heRX1-10.G2: Human Engineered RX1: light chain Low + Mod Risk (Germline), heavy chain Low + Mod Risk (Kabat), Gamma 2 (antibody, left off: a dimerising Fc or GST) heavy: QVQLQESGPGLVKPSQTLSLTCTVSDYSITSDYAWNWIRQFPGKGLEWMGYISYSGSTSYNPSLKSRITISRDTSKNQFSLQLNSVTAADTAVYYCASFDYAHAMDYWGQGTTVTVSS light: DIVLTQSPAFLSVTPGEKVTFTCQASQSIGTSIHWYQQKTDQAPKLLIKYASESISGIPSRFSGSGSGTDFTLTISSVEAEDAADYYCQQINSWPTTFGGGTKLEIKRT | – | – | about 400 kDa | 2:1 or 2:2 complexes | (1.1 ± 0.11) × 10^−3 sec-1 | (1.1 ± 0.11) × 10^−3 sec-1 | – |
| heRX1-7.G2: Human Engineered RX1: light chain Low + Mod Risk (Kabat) − RAT54, 55, 56 to SIS, heavy chain Low Risk (Kabat), Gamma 2 (antibody, V domains shown) VH: DVQLQESGPGLVKPSQTLSLTCTVTDYSITSDYAWNWIRQFPGKKLEWMGYISYSGSTSYNPSLKSRITISRDTSKNQFSLQLNSVTAADTATYYCASFDYAHAMDYWGQGTTVTVSS VL: EIVLTQSPGTLSVSPGERVTFSCRASQSIGTSIHWYQQKTGQAPRLLIKYASESISGIPDRFSGSGSGTDFTLTISRVESEDFADYYCQQINSWPTTFGQGTKLEIK | 157000 M⁻¹ s⁻¹ | 0.00149 s⁻¹ | – | – | – | – | – |
| heRX1-3.G2: Human Engineered RX1: light chain Low + Mod Risk (Kabat), heavy chain Low Risk (Kabat), Gamma 2 (antibody, left off: a dimerising Fc or GST) heavy: DVQLQESGPGLVKPSQTLSLTCTVTDYSITSDYAWNWIRQFPGKKLEWMGYISYSGSTSYNPSLKSRITISRDTSKNQFSLQLNSVTAADTATYYCASFDYAHAMDYWGQGTTVTVSS light: EIVLTQSPGTLSVSPGERVTFSCRASQSIGTSIHWYQQKTGQAPRLLIKYASERATGIPDRFSGSGSGTDFTLTISRVESEDFADYYCQQINSWPTTFGQGTKLEIKRT | 201000 M⁻¹ s⁻¹ | 0.00118 s⁻¹ | – | – | – | – | – |
| heRX1-1.G2: Human Engineered RX1: light chain Low Risk (Kabat), heavy chain Low Risk (Kabat), Gamma 2 (antibody, left off: a dimerising Fc or GST) heavy: DVQLQESGPGLVKPSQTLSLTCTVTDYSITSDYAWNWIRQFPGKKLEWMGYISYSGSTSYNPSLKSRITISRDTSKNQFSLQLNSVTAADTATYYCASFDYAHAMDYWGQGTTVTVSS light: EIVLTQSPGTLSVSPGERVTFSCRASQSIGTSIHWYQQKTGQSPRLLIKYASERISGIPDRFSGSGSGTDFTLTISRVESEDFADYYCQQINSWPTTFGQGTKLEIKRT | – | – | greater than 2×10^6 Da | large lattice aggregates | (1.37 ± 0.24) × 10^−3 sec-1 | (1.37 ± 0.24) × 10^−3 sec-1 | – |
| heRX1-5.G2: Human Engineered RX1: light chain Low Risk (Kabat) − R54 to S, heavy chain Low Risk (Kabat), Gamma 2 (antibody, left off: a dimerising Fc or GST) heavy: DVQLQESGPGLVKPSQTLSLTCTVTDYSITSDYAWNWIRQFPGKKLEWMGYISYSGSTSYNPSLKSRITISRDTSKNQFSLQLNSVTAADTATYYCASFDYAHAMDYWGQGTTVTVSS light: EIVLTQSPGTLSVSPGERVTFSCRASQSIGTSIHWYQQKTGQSPRLLIKYASESISGIPDRFSGSGSGTDFTLTISRVESEDFADYYCQQINSWPTTFGQGTKLEIKRT | 175000 M⁻¹ s⁻¹ | 0.00129 s⁻¹ | – | – | – | – | – |
| MC1: MCSF-specific murine antibody MC1 (SEQ ID NOs: 12 and 13), hybridoma ATCC PTA-6263 (antibody, listed as Mus musculus) heavy: EVKLVESGGGLVQPGGSLKLSCATSGFTFSDYYMYWVRQTPEKRLEWVAYISNGGGSTYYPDTVKGRFTISRDNAKNTLYLQMSRLKSEDTAMYYCARQGSYGYPFAYWGQGTLVTVSAAKTTAPSVYPLAPVCGDTTGSSVTLGCLVKGYFPEPVTLTWNSGSLSSGVHTFPAVLQSDLYTLSSSVTVTSSTWPSQSITCNVAHPASSTKVDKKIEPRGPTIKPCPPCKCPAPNLLGGPSVFIFPPKIKDVLMISLSPIVTCVVVDVSEDDPDVQISWFVNNVEVHTAQTQTHREDYNSTLRVVSALPIQHQDWMSGKEFKCKVNNKDLPAPIERTISKPKGSVRAPQVYVLPPPEEEMTKKQVTLTCMVTDFMPEDIYVEWTNNGKTELNYKNTEPVLDSDGSYFMYSKLRVEKKNWVERNSYSCSVVHEGLHNHHTTKSFSRTPGK light: AIQMTQTTSSLSASLGDRVTISCSASQGISNYLNWYQQKPDGTVKLLIYYTSSLHSGVPSRFSGSGSGTDYSLTISNLEPEDIATYYCQQYSKLPWTFGGGTKLEIKRADAAPTVSIFPPSSEQLTSGGASVVCFLNNFYPKDINVKWKIDGSERQNGVLNSWTDQDSKDSTYSMSSTLTLTKDEYERHNSYTCEATHKTSTSPIVKSFNRNEC | – | – | – | – | – | – | effective inhibitors of M-CSF activity |
